# System: tau ΔMTBD-DBR (1N4R) del242-265, P10636-7
# Experiment: EMSA
# Conditions: 10 mM NaCl; text gives 430; EMSA: 20 nM DNA or nucleosome, 20 mM HEPES pH 7.2, 10 mM NaCl (or 150), 0.5 mM TCEP, 0.1% Tween-20, 5% sucrose, room temperature 20 min; FA: 10 nM DNA, same …
# Chain of tau ΔMTBD-DBR (1N4R) del242-265, P10636-7 (P10636 other isoform, or with tags, fused parts or gaps mutant): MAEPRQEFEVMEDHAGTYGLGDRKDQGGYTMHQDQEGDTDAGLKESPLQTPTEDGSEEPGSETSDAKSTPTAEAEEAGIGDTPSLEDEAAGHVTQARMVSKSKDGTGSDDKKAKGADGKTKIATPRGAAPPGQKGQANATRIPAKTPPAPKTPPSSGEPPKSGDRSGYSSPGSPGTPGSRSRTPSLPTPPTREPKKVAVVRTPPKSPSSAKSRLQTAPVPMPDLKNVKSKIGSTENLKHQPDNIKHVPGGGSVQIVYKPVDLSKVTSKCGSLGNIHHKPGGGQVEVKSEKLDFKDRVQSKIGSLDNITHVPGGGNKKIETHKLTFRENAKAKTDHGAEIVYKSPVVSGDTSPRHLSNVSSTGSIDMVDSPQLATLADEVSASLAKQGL
sequence,measurement,value
ACTACGCGGCCGCCCTGGAGAATCCCGGTGCCGAGGCCGCTCAATTGGTCGTAGACAGCTCTAGCACCGCTTAAACGCACGTACGCGCTGTCCCCCGCGTTTTAACCGCCAAGGGGATTACTCCCTAGTCTCCAGGCACGTGTCAGATATATACATCCTGTGCATGTAAGATCCAGT (double strand) [177 bp DNA (601)],Kd,427 nM
